This data set in a line: melting temperature; UV melt of duplexes.

For “CTGGTCTGGATCTGAGAACTTCAGG+CCTGAAGTTCTCAGATCCAGACCAG (((((((((((((((((((((((((+)))))))))))))))))))))))))”, the Tm (sodium 0.07 M, strand 2 µM) was 62.1 °C; the Tm (sodium 0.12 M, strand 2 µM) was 65.8 °C; the melting temperature (Tm) (sodium 0.22 M, strand 2 µM) was determined as 69.6 °C; the Tm (sodium 0.62 M, strand 2 µM) is 74.2 °C; the Tm (sodium 1.02 M, strand 2 µM) amounted to 75.6 °C.
For “GTGGTGGGCCGTGCGCTCTG+CAGAGCGCACGGCCCACCAC ((((((((((((((((((((+))))))))))))))))))))” the same measures were 69.2 °C, 72.7 °C, 76.2 °C, 79.6 °C and 81 °C.
For “GACCTGACGTGGACCGCTCCTGGGCGTGGT+ACCACGCCCAGGAGCGGTCCACGTCAGGTC ((((((((((((((((((((((((((((((+))))))))))))))))))))))))))))))” the same measures were 74.4 °C, 78.4 °C, 81.5 °C, 85.2 °C and 86.4 °C.
On to “GCGGATTAGGATCCATATCGCG+CGCGATATGGATCCTAATCCGC ((((((((((((((((((((((+))))))))))))))))))))))”, for which, under “sodium 0.12 M, strand 4 µM”, the Tm came to 65.4 °C.
“AAATAAATAGCTATTTATTT+AAATAAATAGCTATTTATTT ((((((((((((((((((((+))))))))))))))))))))”: for the setting “sodium 0.12 M, strand 7 µM”, the Tm worked out at 47.1 °C.
For “ATGCAATGCTACATATTCGC+GCGAATATGTAGCATTGCAT ((((((((((((((((((((+))))))))))))))))))))”, the midpoint of thermal melting (Tm) reads like this: (sodium 0.07 M, strand 2 µM) 55.2 °C; (sodium 0.12 M, strand 2 µM) 59.5 °C; (sodium 0.22 M, strand 2 µM) 62.9 °C; (sodium 0.62 M, strand 2 µM) 67 °C; (sodium 1.02 M, strand 2 µM) 68.9 °C.
With “TGGATTCTACTCAACCTTAGTCTGG+CCAGACTAAGGTTGAGTAGAATCCA (((((((((((((((((((((((((+)))))))))))))))))))))))))”, the Tm worked out at 59 °C (sodium 0.07 M, strand 2 µM); 63.1 °C (sodium 0.12 M, strand 2 µM); 67.1 °C (sodium 0.22 M, strand 2 µM); 71.3 °C (sodium 0.62 M, strand 2 µM); 73.6 °C (sodium 1.02 M, strand 2 µM).
As to “GATGACGCTAGCTAGCTAGGAC+GTCCTAGCTAGCTAGCGTCATC ((((((((((((((((((((((+))))))))))))))))))))))”, under “sodium 0.15 M, strand 1.1 µM”, the Tm is 64 °C.
Take “GAGATTGTTTCCCTTTCAAA+TTTGAAAGGGAAACAATCTC ((((((((((((((((((((+))))))))))))))))))))”: the melting temperature (Tm) came to 49.3 °C (sodium 0.07 M, strand 2 µM); 52.8 °C (sodium 0.12 M, strand 2 µM); 57.6 °C (sodium 0.22 M, strand 2 µM); 62.6 °C (sodium 0.62 M, strand 2 µM); 65.3 °C (sodium 1.02 M, strand 2 µM).
For “ATGGGTGGGAGCCTCGGTAGCAGCC+GGCTGCTACCGAGGCTCCCACCCAT (((((((((((((((((((((((((+)))))))))))))))))))))))))” the same measures were 70.7 °C, 74.5 °C, 78.2 °C, 81.6 °C and 83.4 °C.
For “CAGCCTCGTTCGCACAGCCC+GGGCTGTGCGAACGAGGCTG ((((((((((((((((((((+))))))))))))))))))))” the same measures were 67.2 °C, 70.7 °C, 74 °C, 77.7 °C and 78.1 °C.
As for “GCCCCTCCACTGGCCGACGGCAGCAGGCTC+GAGCCTGCTGCCGTCGGCCAGTGGAGGGGC ((((((((((((((((((((((((((((((+))))))))))))))))))))))))))))))”, the Tm is, setting by setting: (sodium 0.07 M, strand 2 µM) 76.3 °C; (sodium 0.12 M, strand 2 µM) 79.8 °C; (sodium 0.22 M, strand 2 µM) 83.6 °C; (sodium 0.62 M, strand 2 µM) 87.1 °C; (sodium 1.02 M, strand 2 µM) 87.7 °C.
Regarding “CTTCAACGGATCAGGTAGGACTGTGGTGGG+CCCACCACAGTCCTACCTGATCCGTTGAAG ((((((((((((((((((((((((((((((+))))))))))))))))))))))))))))))”, the Tm (sodium 0.07 M, strand 2 µM) was 67.6 °C; the Tm (sodium 0.12 M, strand 2 µM) came out at 71.7 °C; the Tm (sodium 0.22 M, strand 2 µM) is 74.7 °C; the Tm (sodium 0.62 M, strand 2 µM) came to 78.8 °C; the Tm (sodium 1.02 M, strand 2 µM) came to 80.1 °C.
With “GCGGGCGAGGATCCAGCGCGCG+CGCGCGCTGGATCCTCGCCCGC ((((((((((((((((((((((+))))))))))))))))))))))”, the Tm (sodium 0.12 M, strand 5.3 µM) is 77.2 °C.
In the case of “AAAGGTGTCGCGGAGAGTCGTGCTG+CAGCACGACTCTCCGCGACACCTTT (((((((((((((((((((((((((+)))))))))))))))))))))))))”, the midpoint of thermal melting (Tm) (sodium 0.07 M, strand 2 µM) was 69.6 °C; the Tm (sodium 0.12 M, strand 2 µM) came to 73.6 °C; the melting temperature (Tm) (sodium 0.22 M, strand 2 µM) is 77.4 °C; the Tm (sodium 0.62 M, strand 2 µM) stood at 81.2 °C; the melting temperature (Tm) (sodium 1.02 M, strand 2 µM) was 82.4 °C.
On to “AATATATAGCTATCGAT+ATCGATAGCTATATATT (((((((((((((((((+)))))))))))))))))”, for which, for the setting “sodium 0.12 M, strand 4 µM”, the melting temperature (Tm) was found to be 49.7 °C.
Consider “CTCGTACCTTTCCGGTCC+GGACCGGAAAGGTACGAG ((((((((((((((((((+))))))))))))))))))”, for which, under “sodium 0.1 M, strand 4 µM”, the midpoint of thermal melting (Tm) was 61.7 °C.
Regarding “GTTCACGTCCGAAAGCTCGAAAAAGGATAC+GTATCCTTTTTCGAGCTTTCGGACGTGAAC ((((((((((((((((((((((((((((((+))))))))))))))))))))))))))))))”, the midpoint of thermal melting (Tm) by setting is: (sodium 0.07 M, strand 2 µM) 64.3 °C; (sodium 0.12 M, strand 2 µM) 68.2 °C; (sodium 0.22 M, strand 2 µM) 72.1 °C; (sodium 0.62 M, strand 2 µM) 77.1 °C; (sodium 1.02 M, strand 2 µM) 78.7 °C.
As to “AGCTGCAGTGGATGTGAGAA+TTCTCACATCCACTGCAGCT ((((((((((((((((((((+))))))))))))))))))))”, the midpoint of thermal melting (Tm) was found to be 59.7 °C (sodium 0.07 M, strand 2 µM); 63.5 °C (sodium 0.12 M, strand 2 µM); 67.6 °C (sodium 0.22 M, strand 2 µM); 71.3 °C (sodium 0.62 M, strand 2 µM); 73.1 °C (sodium 1.02 M, strand 2 µM).
With “AAGCTATATATATCGAT+ATCGATATATATAGCTT (((((((((((((((((+)))))))))))))))))”, the melting temperature (Tm) (sodium 0.12 M, strand 5 µM) worked out at 50.2 °C.
With “ACGCCCACAGGATTAGGCTGGCCCACATTG+CAATGTGGGCCAGCCTAATCCTGTGGGCGT ((((((((((((((((((((((((((((((+))))))))))))))))))))))))))))))”, the Tm reads like this: (sodium 0.07 M, strand 2 µM) 71.3 °C; (sodium 0.12 M, strand 2 µM) 74.7 °C; (sodium 0.22 M, strand 2 µM) 78.5 °C; (sodium 0.62 M, strand 2 µM) 82.7 °C; (sodium 1.02 M, strand 2 µM) 84 °C.
As for “TAACCATACTGAATACCTTTTGACG+CGTCAAAAGGTATTCAGTATGGTTA (((((((((((((((((((((((((+)))))))))))))))))))))))))”, the Tm was 56.5 °C (sodium 0.07 M, strand 2 µM); 60.2 °C (sodium 0.12 M, strand 2 µM); 64.3 °C (sodium 0.22 M, strand 2 µM); 68.9 °C (sodium 0.62 M, strand 2 µM); 71.3 °C (sodium 1.02 M, strand 2 µM).
For “TAGTGGCGATTAGATTCTGC+GCAGAATCTAATCGCCACTA ((((((((((((((((((((+))))))))))))))))))))”, in that order: 57 °C, 60.6 °C, 64.8 °C, 69.1 °C and 71.2 °C.
For “CCCTGCACTTTAACTGAATTGTTTA+TAAACAATTCAGTTAAAGTGCAGGG (((((((((((((((((((((((((+)))))))))))))))))))))))))”, in that order: 57.4 °C, 61.4 °C, 65.6 °C, 70.1 °C and 72.5 °C.
For “GTCATACGACTGAGTGCAACATTGTTCAAA+TTTGAACAATGTTGCACTCAGTCGTATGAC ((((((((((((((((((((((((((((((+))))))))))))))))))))))))))))))”, in that order: 62.7 °C, 66.8 °C, 70.8 °C, 75.9 °C and 76.9 °C.
Regarding “CAGTGAGACAGCAATGGTCG+CGACCATTGCTGTCTCACTG ((((((((((((((((((((+))))))))))))))))))))”, the melting temperature (Tm) stood at 59.8 °C (sodium 0.07 M, strand 2 µM); 63.5 °C (sodium 0.12 M, strand 2 µM); 67 °C (sodium 0.22 M, strand 2 µM); 71.1 °C (sodium 0.62 M, strand 2 µM); 72.5 °C (sodium 1.02 M, strand 2 µM).
For “TCAGTAGGCGTGACGCAGAGCTGGCGATGG+CCATCGCCAGCTCTGCGTCACGCCTACTGA ((((((((((((((((((((((((((((((+))))))))))))))))))))))))))))))”, in that order: 72.2 °C, 75.7 °C, 79.3 °C, 83.3 °C and 84.6 °C.
For “CGTACTAGCGTTGGTCATGG+CCATGACCAACGCTAGTACG ((((((((((((((((((((+))))))))))))))))))))”, in that order: 59.6 °C, 63.1 °C, 66.6 °C, 70.5 °C and 71.1 °C.
As for “AATATATATAGAGTAATTATAA+TTATAATTACTCTATATATATT ((((((((((((((((((((((+))))))))))))))))))))))”, for the setting “sodium 0.12 M, strand 5 µM”, the Tm was 45.1 °C.
With “TATGTATATTTTGTAATCAG+CTGATTACAAAATATACATA ((((((((((((((((((((+))))))))))))))))))))”, the Tm (sodium 0.07 M, strand 2 µM) turned out to be 44.4 °C; the Tm (sodium 0.12 M, strand 2 µM) was found to be 47.7 °C; the Tm (sodium 0.22 M, strand 2 µM) is 52.6 °C; the Tm (sodium 0.62 M, strand 2 µM) came out at 57.6 °C; the Tm (sodium 1.02 M, strand 2 µM) came out at 61.2 °C.
For “AGCAGTCCGCCACACCCTGA+TCAGGGTGTGGCGGACTGCT ((((((((((((((((((((+))))))))))))))))))))”, in that order: 66.5 °C, 69.9 °C, 74 °C, 76.9 °C and 78.5 °C.
Regarding “ACTGGCGAGGATCCAGCGGTCA+TGACCGCTGGATCCTCGCCAGT ((((((((((((((((((((((+))))))))))))))))))))))”, for the setting “sodium 0.12 M, strand 4.1 µM”, the Tm came to 71.8 °C.
Consider “ATAAATAAAGCTTTATTTAT+ATAAATAAAGCTTTATTTAT ((((((((((((((((((((+))))))))))))))))))))”, for which the Tm (sodium 0.12 M, strand 7 µM) worked out at 46.2 °C.
With “AACGCGTGAATTCTGGCCAA+TTGGCCAGAATTCACGCGTT ((((((((((((((((((((+))))))))))))))))))))”, where the note is “sodium 0.12 M, strand 6 µM”, the melting temperature (Tm) came to 66.6 °C.
In the case of “AATATGAATTCTAATA+TATTAGAATTCATATT ((((((((((((((((+))))))))))))))))”, the Tm (sodium 0.12 M, strand 6 µM) is 41.4 °C.
For “CTTAAGATATGAGAACTTCAACTAATGTGT+ACACATTAGTTGAAGTTCTCATATCTTAAG ((((((((((((((((((((((((((((((+))))))))))))))))))))))))))))))”, the Tm came out at 56.8 °C (sodium 0.07 M, strand 2 µM); 61.3 °C (sodium 0.12 M, strand 2 µM); 64.9 °C (sodium 0.22 M, strand 2 µM); 70.5 °C (sodium 0.62 M, strand 2 µM); 71.8 °C (sodium 1.02 M, strand 2 µM).
